The values below come from publication PMC12668182, “Molecular basis for CSB stimulation of the SNM1A DNA repair nuclease” (Research Square, 2025).

B1: CSB winged-helix domain (WHD, a.a. 1424-1493) (domain or fragment, human, UniProt Q03468 1424-1493, looked up)
chain: HDDLLVEMRNFIAFQAHTDGQASTREILQEFESKLSASQSCVFRELLRNLCTFHRTSGGEGIWKLKPEYC
notes: also called CSB-WHD; source: E. coli BL21(DE3) pLysS, purified (Ni-NTA, Superdex S75)
B2: CSB lacking the N-terminal domain (DN-CSB, a.a. 402-1493) (domain or fragment, human, UniProt Q03468 402-1493, looked up)
chain: YELKPLPKGGKRQKKVPVQEIDDDFFPSSGEEAEAASVGEGGGGGRKVGRYRDDGDEDYYKQRLRRWNKLRLQDKEKRLKLEDDSEESDAEFDEGFKVPGFLFKKLFKYQQTGVRWLWELHCQQAGGILGDEMGLGKTIQIIAFLAGLSYSKIRTRGSNYRFEGLGPTVIVCPTTVMHQWVKEFHTWWPPFRVAILHETGSYTHKKEKLIRDVAHCHGILITSYSYIRLMQDDISRYDWHYVILDEGHKIRNPNAAVTLACKQFRTPHRIILSGSPMQNNLRELWSLFDFIFPGKLGTLPVFMEQFSVPITMGGYSNASPVQVKTAYKCACVLRDTINPYLLRRMKSDVKMSLSLPDKNEQVLFCRLTDEQHKVYQNFVDSKEVYRILNGEMQIFSGLIALRKICNHPDLFSGGPKNLKGLPDDELEEDQFGYWKRSGKMIVVESLLKIWHKQGQRVLLFSQSRQMLDILEVFLRAQKYTYLKMDGTTTIASRQPLITRYNEDTSIFVFLLTTRVGGLGVNLTGANRVVIYDPDWNPSTDTQARERAWRIGQKKQVTVYRLLTAGTIEEKIYHRQIFKQFLTNRVLKDPKQRRFFKSNDLYELFTLTSPDASQSTETSAIFAGTGSDVQTPKCHLKRRIQPAFGADHDVPKRKKFPASNISVNDATSSEEKSEAKGAEVNAVTSNRSDPLKDDPHMSSNVTSNDRLGEETNAVSGPEELSVISGNGECSNSSGTGKTSMPSGDESIDEKLGLSYKRERPSQAQTEAFWENKQMENNFYKHKSKTKHHSVAEEETLEKHLRPKQKPKNSKHCRDAKFEGTRIPHLVKKRRYQKQDSENKSEAKEQSNDDYVLEKLFKKSVGVHSVMKHDAIMDGASPDYVLVEAEANRVAQDALKALRLSRQRCLGAVSGVPTWTGHRGISGAPAGKKSRFGKKRNSNFSVQHPSSTSPTEKCQDGIMKKEGKDNVPEHFSGRAEDADSSSGPLASSSLLAKMRARNHLILPERLESESGHLQEASALLPTTEHDDLLVEMRNFIAFQAHTDGQASTREILQEFESKLSASQSCVFRELLRNLCTFHRTSGGEGIWKLKPEYC
notes: Cloned by InFusion from the full-length CSB pFastBac vector
B3: CSB C-terminal domain (a.a. 1187-1493) (domain or fragment, human, UniProt Q03468 1187-1493, looked up)
chain: HHSVAEEETLEKHLRPKQKPKNSKHCRDAKFEGTRIPHLVKKRRYQKQDSENKSEAKEQSNDDYVLEKLFKKSVGVHSVMKHDAIMDGASPDYVLVEAEANRVAQDALKALRLSRQRCLGAVSGVPTWTGHRGISGAPAGKKSRFGKKRNSNFSVQHPSSTSPTEKCQDGIMKKEGKDNVPEHFSGRAEDADSSSGPLASSSLLAKMRARNHLILPERLESESGHLQEASALLPTTEHDDLLVEMRNFIAFQAHTDGQASTREILQEFESKLSASQSCVFRELLRNLCTFHRTSGGEGIWKLKPEYC
notes: pNIC28-Bsa4 vector: N-terminal His6 followed by a TEV site; no cleavage is described; also called C-terminal CSB construct; source: E. coli BL21(DE3) pLysS, purified (Ni-NTA, Superdex S75)
B4: CSB (a.a. 1308-1493) (domain or fragment, human, UniProt Q03468 1308-1493, looked up)
chain: VSGVPTWTGHRGISGAPAGKKSRFGKKRNSNFSVQHPSSTSPTEKCQDGIMKKEGKDNVPEHFSGRAEDADSSSGPLASSSLLAKMRARNHLILPERLESESGHLQEASALLPTTEHDDLLVEMRNFIAFQAHTDGQASTREILQEFESKLSASQSCVFRELLRNLCTFHRTSGGEGIWKLKPEYC
notes: source: E. coli BL21(DE3) pLysS, purified (Ni-NTA, Superdex S75)
B5: N-Avi-Biotin-SNM1A (a.a. 698-1040), wild type (domain or fragment, human, UniProt Q6PJP8 698-1040, looked up)
chain: KKTCPFYKKIPGTGFTVDAFQYGVVEGCTAYFLTHFHSDHYAGLSKHFTFPVYCSEITGNLLKNKLHVQEQYIHPLPLDTECIVNGVKVVLLDANHCPGAVMILFYLPNGTVILHTGDFRADPSMERSLLADQKVHMLYLDTTYCSPEYTFPSQQEVIRFAINTAFEAVTLNPHALVVCGTYSIGKEKVFLAIADVLGSKVGMSQEKYKTLQCLNIPEINSLITTDMCSSLVHLLPMMQINFKGLQSHLKKCGGKYNQILAFRPTGWTHSNKFTRIADVIPQTKGNISIYGIPYSEHSSYLEMKRFVQWLKPQKIIPTVNVGTWKSRSTMEKYFREWKLEAGY
modifications: biotin on the N-terminal Avi tag
notes: SNM1A (DCLRE1A), human, core catalytic domain (MBL-beta-CASP), residues 698-1040; Immobilised in SPR through the biotinylated Avi tag; held on streptavidin mutein beads in the co-purifications; also called N-Avi-SNM1A_(698-1040); core catalytic domain of SNM1A; source: Sf9 insect cells (BirA co-expressed, D-biotin added), purified (streptavidin mutein matrix, Superdex S75); not shown: Avi …
B6: HaloTag-JF-552-labelled SNM1A (a.a. 698-1040), partially purified (domain or fragment, human, UniProt Q6PJP8 698-1040, looked up)
chain: B5 chain
modifications: JF-552 dye on the HaloTag
notes: SNM1A (DCLRE1A), human, catalytic C-terminal domain, residues 698-1040; Addgene vector (printed as Addgene: 58241) giving an N-terminal His-Halo tag; also called SNM1A (JF-552, green); SNM1A_(698-1040) for single-molecule studies; source: Expi293F, transfected, partially purified (Ni-NTA); not shown: HaloTag, N-terminal, kept
B7: E864A-SNM1A (MBL-beta-CASP domain, a.a. 698-1040), N-Avi (domain or fragment, human, UniProt Q6PJP8 698-1040, looked up)
chain: B5 chain with E167A
modifications: biotin on the N-terminal Avi tag
notes: SNM1A (DCLRE1A), human, core catalytic domain, residues 698-1040, E864A; also called SNM1A-E864A; SNM1A (E864A); source: Sf9 insect cells (D-biotin added), purified (streptavidin mutein matrix, gel filtration)
B8: SNM1A (a.a. 698-1040), tag of the preparation not stated (domain or fragment, human, UniProt Q6PJP8 698-1040, looked up)
chain: B5 chain
notes: SNM1A (DCLRE1A), human, core catalytic domain, residues 698-1040; Used for HDX-MS, mass photometry and nuclease assays; Mass photometry legend gives an expected mass of 36 kDa; also called C-terminal SNM1A; source: purified from insect cells

Changes are numbered by the printed parent chain. In names and notes the source's numbering stands. Several values for one entry are separate records, joined by “and”; a condition that tells them apart may be missing. Equal values may be shown once.

Series [1] deals with B5. Nature of the series: SPR; single-cycle; SNM1A immobilised via biotinylated N-terminal Avi tag on a Series S SA surface (~4000 RU); CSB constructs as analytes, 5 or 6 two-fold dilutions from 500 nM or 1 uM; 20 mM HEPES pH 7.5, 150 mM NaCl, 0.5 mM TCEP; 1:1 Langmuir fit; apparent KD. To be noted: both partners purified. In general terms: In SPR one partner is held on a chip, and binding of the other changes the refractive index at the surface.

The target of series [2] is B7. The description is as above. The following applies: both partners purified.
In series [3] the target is B5. Nature of the series: pull-down + SEC; co-purification: CSB construct (eluted from Ni-NTA, desalted) incubated with N-Avi-Biotin-SNM1A on streptavidin mutein beads, washed (500 mM NaCl, 1 mM Mg2+), eluted with 5 mM D-biotin, run on Superdex S200 GL 10/300; SDS-PAGE, MS and calibration curve. To be noted: both partners purified.
Series [4] concerns the molecule itself. As to the kind of experiment: SEC-MALS; DN-CSB alone, 5 uM; monomer to dimer. A general note: Size exclusion chromatography separates by hydrodynamic size, large species first.
Series [5] deals with B5. As to the kind of experiment: SPR; multi-cycle; SNM1A immobilised via biotinylated N-terminal Avi tag (~4000 RU); two-fold dilutions from 2 uM, 300 s injection, 1200 s dissociation; regeneration with 1 M NaCl; apparent KD. To be noted: both partners purified.
For series [6], the target named is T1, full-length CSB (ERCC6), wild type, recombinant (human, UniProt Q03468 1-1493).
T1 construct: CSB (ERCC6), human, full length, a.a; A TEV site follows the N-terminal tags, but no cleavage is described; also called FL-CSB; WT-CSB; source: Sf9 insect cells, purified (Ni-NTA, Superdex S200, HiTrap SP)
As to the kind of experiment: SPR; single-cycle; SNM1A immobilised via biotinylated N-terminal Avi tag on a Series S SA surface (~4000 RU); CSB constructs as analytes, 5 or 6 two-fold dilutions from 500 nM or 1 uM; 20 mM HEPES pH 7.5, 150 mM NaCl, 0.5 mM TCEP; 1:1 Langmuir fit; apparent KD. The following applies: both partners purified.

For series [7], the target named is T2, HaloTag-CSB, full length, JaneliaFluor-labelled (human, UniProt Q03468 1-1493, JaneliaFluor dye (JF552 or JF635) on the HaloTag).
T2 construct: CSB (ERCC6), human, full length, codon-optimised for mammalian expression; Vectors with N-terminal HaloTag under a CMV promoter (Promega pFN28A or Addgene 58241, both used on separate days); also called CSB (JF-635, red); CSB (JF552, green); source: Expi293F, transfected, in nuclear extract; not shown: HaloTag, N-terminal, kept
As to the kind of experiment: single-molecule fluorescence on tethered DNA (SMADNE, LUMICKS C-Trap); partially purified HaloTag-JF-552 SNM1A added to HaloTag-CSB (JF635) nuclear extract, on lambda dsDNA; category 9 colocalisation events; apparent constants; DNA present. To be noted: one partner purified.

Series [8] deals with T2, HaloTag-CSB, full length, …. Nature of the series: single-molecule fluorescence on tethered DNA (SMADNE, LUMICKS C-Trap); partially purified HaloTag-JF-552 SNM1A added to HaloTag-CSB (JF635) nuclear extract, on a site-specific ICL flap repair intermediate in 12 kb DNA; apparent constants; DNA present. To be noted: one partner purified.
For series [9], the target named is T1, full-length CSB (ERCC6), wild type, …. As to the kind of experiment: mass photometry; CSB and SNM1A mixed at 200 nM each, 5 min at room temperature, diluted 10-fold into the gasket; 50 mM HEPES pH 7.5, 300 mM NaCl, 0.5 mM TCEP; KD from mass counts. The following applies: both partners purified.

Broadly, the stoichiometry N is a count of units in the complex or per binding partner. B1: the Kd in series [1] is 89 nM; in series [2] it was around 1000 nM. In addition, the “stoichiometry N” value in [3] turned out to be 1.

Turning to B2, the “stoichiometry N” value in [4] was 2. Take B3: the Kd in series [1] was 10.7 nM and 12 nM; in series [2], 29 nM. The “stoichiometry N” value in [3] worked out at 2. As to B4, the binding result in [5] is listed as “binds”. Consider B5, for which the Kd in series [6] is 4.8 nM and 4 nM. As to B6, the “apparent KD of SNM1A for CSB-bound lambda dsDNA” value in [7] is 17.5 nM. Besides, in series [8], the “apparent KD of SNM1A for the CSB-bound ICL repair intermediate” value came to 45 nM. As for B7, in series [6], the Kd turned out to be 8 nM. On to B8, for which, in series [9], the Kd turned out to be 499 nM.
